Experimental data reported in US20030220482A1 (published 2003).

B1: viral Macrophage Inflammatory Protein-II (vMIP-II) (ligand)
chain: LGASWHRPDKCCLGYQKRPLPQVLLSSWYPTSQLCSKPGVIFLTKRGRQVCADKSKDWVKKLMQQLPVTAR
notes: also called native vMIP-II

Legend:
CXCR4 chemokine receptor [1] = target: T1, CXCR4 chemokine receptor (human, UniProt P61073 1-352); assay: control in ^125I-SDF-1α competitive binding on CEM-T4 cells (FIG. 1)
T1 construct: whole, on cells

CXCR4 chemokine receptor [2] = target: T1, CXCR4 chemokine receptor; assay: ^125I-SDF-1α competitive binding on CEM-T4 cells
Procedure: CEM-T4 cells were harvested and washed twice with PBS. […] The incubation was terminated by separating the cells from the binding buffer by centrifugation and washing once with 500 μl of cold binding buffer. Bound ligands were quantitated by counting γ emissions.

CCR5 chemokine receptor = target: T2, CCR5 chemokine receptor (UniProt P51681 1-352, limits assumed); assay: competitive binding with radiolabeled MIP-1β on CCR5-transfected 293 cells
T2 construct: whole, on cells
T2 sequence (P51681 whole entry): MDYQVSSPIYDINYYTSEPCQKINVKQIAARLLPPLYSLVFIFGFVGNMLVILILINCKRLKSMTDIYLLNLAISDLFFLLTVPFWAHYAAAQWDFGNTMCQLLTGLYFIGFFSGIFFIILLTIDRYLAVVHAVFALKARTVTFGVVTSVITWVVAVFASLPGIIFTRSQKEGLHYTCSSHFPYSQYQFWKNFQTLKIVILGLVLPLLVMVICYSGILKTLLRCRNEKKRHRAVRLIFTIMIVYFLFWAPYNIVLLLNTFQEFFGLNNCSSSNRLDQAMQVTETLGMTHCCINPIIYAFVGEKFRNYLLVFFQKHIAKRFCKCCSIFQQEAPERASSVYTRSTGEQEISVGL

T1 sequence (P61073 whole entry): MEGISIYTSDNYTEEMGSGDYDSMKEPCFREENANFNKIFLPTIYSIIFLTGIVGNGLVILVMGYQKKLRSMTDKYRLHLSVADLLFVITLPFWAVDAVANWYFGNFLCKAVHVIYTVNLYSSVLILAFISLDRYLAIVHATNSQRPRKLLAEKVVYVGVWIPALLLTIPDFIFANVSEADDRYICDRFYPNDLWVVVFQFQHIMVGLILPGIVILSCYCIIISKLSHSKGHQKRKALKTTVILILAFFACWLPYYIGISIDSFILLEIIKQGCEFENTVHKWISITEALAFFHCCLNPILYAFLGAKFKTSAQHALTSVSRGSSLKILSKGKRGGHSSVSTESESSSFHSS

| Binder | binding result (CXCR4 chemokine receptor [1]) | binding result (CXCR4 chemokine receptor [2]) | binding result (CCR5 chemokine receptor) |
| --- | --- | --- | --- |
| B1 | binds | – | – |
| LGASWHRPDK [V3 peptide (vMIP-II, 1-10)] | – | binds | no binding |
